Test results taken from paper PMC12232321.

Columns and labels:
[1] = target: LOV1-C57M-SL-LOV2-C250A fusion protein (short linker) (UniProt Q8LPD9); assay: crystal structure; fusion protein pre-irradiated with blue light and reoxidised (FMN^·-Met/FMNox); 20% PEG 3350, 0.1 M BIS-TRIS pH 6.5, 0.1 M ammonium sulfate, 5 mg/mL
[2] = target: LOV2-C250A single domain of Phot1; assay: crystal structure; LOV2-C250A crystallized in the dark (FMNox)

stoichiometry N [1]	stoichiometry N [2]	Substance
2	–	LOV1-C57M-SL-LOV2-C250A fusion protein (short linker) (from UniProt Q8LPD9 17-125)
–	2	LOV2-C250A single domain of Phot1 (domain or fragment)
